This is an account of results in publication PMC7115751, “Identification and functional characterization of a β-glucosidase from Bacillus tequelensis BD69 expressed in bacterial and yeast heterologous systems” (PeerJ, 2020).

Substrate in this data set: O=[N+]([O-])c1ccc(O[C@@H]2O[C@H](CO)[C@@H](O)[C@H](O)[C@H]2O)cc1
In words: purified protein. The format is biochemical, Bacillus tequilensis. Particulars: pH 5.0 acetate buffer, 50 °C, pNPG 2–20 mM, no metal or NAD cofactor mentioned.

B1: Bteqβgluc (pPIC-Bteqβgluc) (Bacillus tequilensis) (protein)
chain: MTKGLKIVTIGGGSSYTPVLVEGFIKRYDELPVRELWLVDIPEGEEKLNIVGTLAKRMVEKAGVPIDIHLTPDRRKALKDADFVTTQFRVGLLQARAKDERIPLKYGVIGQETNGPGGLFKGLRTIPVILEIAKDIEELCPNAWLVNFTNPAGMVTEALLRYSNLKKVVGLCNVPIGIKMGVAKALDVDVDRVEVQFAGLNHMVFGLDVFLDGVSVKEQVIEAMGDPKNAMTMKNTSGAEWEPDFLKALNVIPCGYHRYYFKTKEMLEHELEASQTEGTRAEVVQKVEKELFELYKDPNLAIKPPQLEKRGGAYYSDAACNLISSIYNDKHDIQPVNTINNGAIASIPDDSAVEVNCVMTKTGPKPIAVGDLPVSVRGLVQQIKSFERVAAEAAVTGDYQTALLAMTTNPLVPSDAVAKQILDDMLEAHKAYLPQFFNKIEA
notes: full-length ORF (1,329 bp; 443 residues) in pPIC9K, secreted from Pichia pastoris GS115, purified by anion exchange; no His tag mentioned
For B1, the Km was 7.43 mM and the specificity constant (kcat/Km) was 1020 M⁻¹ s⁻¹.

B2: Bteqβgluc (pET-Bteqβgluc) (Bacillus tequilensis) (protein)
chain: B1 chain
notes: full-length ORF (1,329 bp; 443 residues) in pET-30a(+), His-tagged, E. coli BL21(DE3) pLysS
For B2, the Km is on record as 8.43 mM and the kcat/Km was 887 M⁻¹ s⁻¹.

One may read the Km as the substrate concentration at which the rate is half of its maximum. Usually kcat/Km stands for the turnover number divided by the Michaelis constant.
